Data: patent publication US10323078B2, “Isolated peptides and fragments thereof from fibrinogen for use as drugs, particularly in skin inflammatory diseases” (Universite Paris Descartes, priority 2015, dated 2019)

What was measured:
[1] = test system: HaCaT, NHDK, ThP1, MRC5 and HDF cell lines; experiment: Cell viability (MTT) after treatment with Fg1 and Fg2 recombinant peptides; type: cell-based, human; conditions: all 5 cell lines; 0.22 to 7 mM for 18 h at 37° C.
Procedure: FIG. 10: Evaluation of cell viability after treatment with the Fg1 and Fg2 recombinant peptides. Human immortalized and primary keratinocyte cell lines HaCaT and NHDK; immortalized monocytes cell line ThP1, and immortalized and primary fibroblast cell lines MRCS and HDF were incubated with Fg1 and Fg2 recombinant peptides with concentrations ranging from 0.22 to 7 mM for 18 h at 37° C. Cell viability was assessed using the MTT assay as described in Materials and Methods.
Crystal violet staining was used to determine the number of adherent cells in 96-well plates. Briefly, after incubation with the test compound, the culture medium was discarded and the cells were incubated with a 0.05% crystal violet solution (Sigma) for 30 min at room temperature. After washing with PBS, 100% methanol was added, and the absorbance was measured spectrophotometrically at 540 nm on an ELISA multiwell reader. The MTT ([…]) assay was performed to test cell viability in 96-well plates. […] After thorough mixing, the absorbance was measured at 540 nm.
(§1) Whole P. acnes bacteria are labelled by biotinylation, pre-treated or not with the peptides and contacted with the various cell lines. After removal of the unfixed bacteria, the adhesion activity was measured spectrophotometrically by using the streptavidin-peroxidase conjugate and a chromogenic substrate.

P. acnes RON strain = experiment: Adhesion assay, biotinylated P. acnes binding to keratinocytes (NHDK); type: cell-based, Propionibacterium acnes; conditions: bacteria pretreated 0.87 to 7 μM, 1 h at 37° C.
Procedure: The bacterial suspension was adjusted at 600 nm to the desired concentration, pretreated with peptides Fg1 and Fg2 at the final concentration ranging from 0.87 to 7 μM for 1 h at 37° C. and deposited on the previously saturated cells with a solution of PBS SVF 2% for 2 h. After incubation for 1 h at 37° C., unbound bacteria are removed by 3 washes with PBS and fixed bacteria are detected by a streptavidin-peroxidase solution of 0.5 μg/ml for 30 min.
as §1
The ability of P. acnes strains 6919, RON and PIE was tested at 3 concentrations to adhere to various cells lines. It has been shown that the strains of P. acnes tested bound to the three kind of cell lines tested (keratinocytes, monocytes and fibroblast) with a maximum adhesion strength found for keratinocytes (FIG. 11). Knowing that P. acnes is able to recognize fibrinogen, it was used human and bovine whole fibrinogen to compete the interaction between the bacteria and the target cell. […] Then, the ability Fg1 to inhibit the adhesion of bacteria and RON PIE was evaluated on the 3 main types cell. […]

ThP1 cells = experiment: IL-1β production by P. acnes-stimulated ThP1 (ELISA); type: cell-based, human; conditions: for Inhibition of Interleukine 1 beta (IL-1β) production: ThP1, 0.87 to 7 μM
Procedure: (§2) For experiences of stimulation with P. acnes, cells were incubated with the P. acnes suspension adjusted at the appropriate concentration, pre-treated for 1 h at 37° C. or not with fibrinogen recombinant peptides Fg1 and Fg2 at the concentrations 0.87, 1.75, 3.5 or 7 μM for the desired period of time at 37° C. in 5% CO2.
Human IL-1ß, IL-8, IL-12, hBD-2, and TNF-α protein concentration was measured in the supernatants of stimulated cells using various ELISA Set kits (Ready-Set-Go kit from eBioscience for acne experiments, and for psoriasis experiments the Duo set IL-8 kit from R&D Systems and the BD-2 Human Development (hBD-2) from Peprotech) according to the manufacturer's instructions. We used serial dilutions of recombinant human IL-1ß, IL-8, IL-12 and TNF-α for standard curve. The optical density was determined at 450 nm at a wavelength correction of 540 nm.
To assess the efficacy of Fg1 recombinant peptide, the production of O2^∘− and H2O2 by HaCaT cells NHDK, THP-1, MRC5 and HDF stimulated by pretreated P. acnes strains 6919, RON and PIE was measured. The amount of ROS produced was compared to that produced by the stimulated cells with untreated bacteria. Production baseline was obtained by measuring ROS on unstimulated cells. The production of IL-1ß, IL-8, IL-12 and TNF-α was also measured in all conditions cited above. The measurement of the production of ROS is performed by spectrofluorimetry in the presence of specific fluorochromes directly on the monolayer cell. Measurement of cytokine production was performed in parallel on the cell culture supernatant.
Two sets of experiments were implemented: 1) The cells were stimulated (18 h at 37° C.) by P. acnes strains previously pretreated with Fg1 and Fg2 peptides at the final concentrations ranging from 0.87 to 7 μM for 1 h at 37° C.; and 2) The cells were pretreated first with Fg1 and Fg2 peptides at the final concentrations ranging from 0.87 to 7 μM for 24 h at 37° C. and stimulated (18 h at 37° C.) by P. acnes strains.

[2] = test system: HaCaT, NHDK, THP-1, MRC5 and HDF; experiment: O2°− production by cells stimulated with P. acnes, overall statement for the five cell lines; type: cell-based, human; conditions: pretreatment of P. acnes strains; five cell lines and three strains tested
Procedure: as §2
All cells lines (5·10^4 to 10^5 cells/well) were seeded in 96-well plates (Corning Costar, Brumath, France) and treated as previously described. After stimulation, cells were washed three times in PBS and incubated with 100 μl per wells of 5 μM DHE (for determination of O2^●−) or 5 μM H2-DCFDA (for determination of H2O2) for 30 min as described previously and fluorescence intensity was recorded every hour over a period of 5 h. Fluorescence excitation/emission maxima were for DHE: 480/610 nm and for H2-DCFDA: 507/525 nm. At the end of the experiment, the number of adherent cells was evaluated by the crystal violet assay as described below. […] Levels of ROS were calculated in each sample as follows: reactive oxygen species rate (arbitrary units/min/10^6 cells)=(fluorescence intensity [arbitrary units] at T5h—fluorescence intensity [arbitrary units] at To/300 minutes/number of adherent cells as measured by the crystal violet assay, and were expressed as arbitrary unit (A.U.). […]

B1: MKRMVSWSFHKLKTMKHLLLLLLCVFLVKSQGVNDNEEGFFSARGHRPLDKKREEAPSLRPAPPPISGGGYRARPAKAAATQKKVERKAPDAGGCLHADPDLGVLC (protein)
chain: MKRMVSWSFHKLKTMKHLLLLLLCVFLVKSQGVNDNEEGFFSARGHRPLDKKREEAPSLRPAPPPISGGGRARPAKAAATQKKVERKAPDAGGCLHADPDLGVLCMKRMVSWSFHKLKTMKHLLLLLLCVFLVKSQGVNDNEEGFFSARGHRPLDKKREEAPSLRPAPPPISGGGYRARPAKAAATQKKVERKAPDAGGCLHADPDLGVLC
modifications: GST fusion; fragment Fg1
notes: fragment of Bß chain of human fibrinogen having 106 amino acids; recombinant GST-fused peptide expressed in E. coli
Cytotoxic activity (cell viability, MTT) [1]: no cytotoxic activity
Inhibition of adhesion of P. acnes RON strain (P. acnes RON strain): inhibits the adhesion of RON strain in a dose-dependent manner
Inhibition of Interleukine 1 beta (IL-1β) production (ThP1 cells; P. acnes 6919, set I, bacteria first pretreated): NO (Inhibition NO: Fg1 has no effect on the production of inflammatory molecule)
Inhibition of Interleukine 1 beta (IL-1β) production (ThP1 cells; P. acnes 6919, set II, cells first pretreated): NO (Inhibition NO: Fg1 has no effect on the production of inflammatory molecule)
Inhibition of Interleukine 1 beta (IL-1β) production (ThP1 cells; P. acnes PIE, set I, bacteria first pretreated): NO (Inhibition NO: Fg1 has no effect on the production of inflammatory molecule)
Inhibition of Interleukine 1 beta (IL-1β) production (ThP1 cells; P. acnes PIE, set II, cells first pretreated): NO (Inhibition NO: Fg1 has no effect on the production of inflammatory molecule)
Inhibition of Interleukine 1 beta (IL-1β) production (ThP1 cells; P. acnes RON, set I, bacteria first pretreated): NO (Inhibition NO: Fg1 has no effect on the production of inflammatory molecule)
Inhibition of Interleukine 1 beta (IL-1β) production (ThP1 cells; P. acnes RON, set II, cells first pretreated): NO (Inhibition NO: Fg1 has no effect on the production of inflammatory molecule)
Effect on the production of IL-1ß (ThP1 cells; whatever the strain of P. acnes used, production effective only for monocytes): no effect
Inhibition of O2°− production [2]: in a dose-dependent manner
